12 molecules from US12662513B2, “Peptidic modulators of quorum sensing in Staphylococcus epidermidis” (priority 2016, dated 2026) can be followed below.

This test deals with AgrC-I receptor (Staphylococcus epidermidis, UniProt Q5HMY3). In words: cell-based. In kind it is cell-based, S. epidermidis. The note with it: for Mode/strength of activity toward AgrC-I (Group I), in words: dose response; for EC50 in AgrC-I: activation dose response in the presence of 50 nM S. epidermidis AIP-II; for IC50 in AgrC-I: antagonism dose response, peptide alone, Group-I GFP reporter strain, 24 h. The protocol:
The initial set of 14 analogs (listed in Table 1) was synthesized using solid-phase peptide chemistry and purified to homogeneity using previously established HPLC methods (59). Each analog was tested for its ability to modulate the activity of the AgrC-I receptor using a wild-type S. epidermidis Group-I fluorescence reporter strain. This strain contained a reporter plasmid encoding a gfp gene fused to the P3 promoter found upstream of RNAIII (36).
Biological reagents, strains, and general methods. All standard reagents were purchased from commercial sources and used according to enclosed instructions. The S. epidermidis fluorescence reporter strains AH3408 (Group-I), AH3567 (Group-II), and AH3409 (Group-III) were cultured in Tryptic Soy Broth (TSB, from Sigma) augmented with 10 μg/mL of erythromycin (36). The S. epidermidis wild-type strain RP62A (Group-I) was cultured in TSB (from Sigma or EMD Millipore). The S. aureus fluorescence reporter strains AH1677 (Group-I), AH430 (Group-II), AH1747 (Group-III), and AH1872 (Group-IV) were cultured in Brain Heart Infusion (BHI, from Teknova) augmented with 10 μg/mL of chloramphenicol (65). All cultures were grown at 37° C. with shaking (200 rpm) unless noted otherwise. Absorbance and fluorescence measurements were obtained using a Biotek Synergy 2 microplate reader operating Gen5 data analysis software. IC50 values and EC50 values were determined from sigmoidal curve fits using GraphPad Prism software (v. 6.0).
Fluorescence reporter assay protocol. […] Each peptide solution was tested in triplicate. […] Plates were then incubated at 37° C. for 24 h. Fluorescence (EX 500 nm/EM 540 nm) and OD600 of each well was measured using a plate reader, and the fluorescence values were normalized to the DMSO control.
The remaining steps of the fluorescence assay were the same as above.

Bridge positions count the residues as written; N and C are the ends. Square brackets hold non-standard residues; d marks the D form. Ends that are not written are not given here. Peptide text beside a SMILES is read from it.

Sequence of AgrC-I receptor (Q5HMY3 entry or part of it): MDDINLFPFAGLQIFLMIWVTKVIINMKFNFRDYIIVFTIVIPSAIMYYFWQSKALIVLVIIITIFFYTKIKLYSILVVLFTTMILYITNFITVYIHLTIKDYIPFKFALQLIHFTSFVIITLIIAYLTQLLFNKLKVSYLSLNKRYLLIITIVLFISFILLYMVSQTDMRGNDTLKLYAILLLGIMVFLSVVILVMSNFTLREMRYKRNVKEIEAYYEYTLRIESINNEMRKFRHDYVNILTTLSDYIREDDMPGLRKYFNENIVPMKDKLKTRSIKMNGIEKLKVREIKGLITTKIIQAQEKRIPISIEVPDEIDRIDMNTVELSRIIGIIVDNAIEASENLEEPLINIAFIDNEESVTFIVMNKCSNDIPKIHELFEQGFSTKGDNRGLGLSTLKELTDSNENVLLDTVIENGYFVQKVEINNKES

With `CC(C)C[C@@H]1NC(=O)[C@H](Cc2ccc(O)cc2)NC(=O)[C@H](CC(N)=O)NC(=O)[C@H](CO)NC(=O)[C@@H](NC(=O)[C@@H]2CCCN2C(=O)[C@@H](N)CC(N)=O)CSC1=O` [AIP-II 7aa, N-P-(C-S-N-Y-L)] (H-NPCSNYL; thioester 3-C), the “Mode/strength of activity toward AgrC-I (Group I), in words” value (“Mode/strength of activity toward AgrC-I” for short) was “dramatic reduction in inhibitory activity”. Still for that read-out and setting: the same measure for `CC(C)C[C@@H]1NC(=O)[C@H](Cc2ccc(O)cc2)NC(=O)[C@H](CC(N)=O)NC(=O)[C@H](CO)NC(=O)[C@@H](NC(=O)[C@@H]2CCCN2C(=O)[C@H](CC(N)=O)NC(=O)[C@H](Cc2ccc(O)cc2)NC(=O)[C@H](CCCCN)NC(=O)[C@H](CO)NC(=O)[C@H](C)NC(=O)[C@@H](N)CC(N)=O)CSC1=O` [AIP-II, N-A-S-K-Y-N-P-(C-S-N-Y-L), reference compound] (H-NASKYNPCSNYL; thioester 8-C): “inhibit”. Turning to “D-S-V-(C-A-S-Y-A) (DSVCASYA; bridge 4-C; also: thiolactone between Cys4 side chain and C-terminus) [AIP-I F8A]”, the “EC50 in AgrC-I” value was “Inactive^c” and the “IC50 in AgrC-I” value was “Inactive^c”. Consider `CC(C)[C@H](NC(=O)[C@H](CO)NC(=O)[C@@H](N)CC(=O)O)C(=O)N[C@H]1CSC(=O)[C@@H](Cc2ccccc2)NC(=O)[C@H](Cc2ccc(O)cc2)NC(=O)[C@H](CO)NC(=O)[C@H](C)NC1=O` [AIP-I D-F8, D-S-V-(C-A-S-Y-DF)] (H-DSVCASY[dF]; thioester 4-C), for which the “Mode/strength of activity toward AgrC-I” value is “maintained agonistic activity”. Still for that read-out and setting: next, `CC(C)C[C@@H]1NC(=O)[C@H](Cc2ccc(O)cc2)NC(=O)[C@H](CO)NC(=O)[C@H](C)NC(=O)[C@@H](NC(=O)[C@@H]2CCCN2C(=O)[C@H](CC(N)=O)NC(=O)[C@H](Cc2ccc(O)cc2)NC(=O)[C@H](CCCCN)NC(=O)[C@H](C)NC(=O)[C@H](C)NC(=O)[C@@H](N)CC(N)=O)CSC1=O` [AIP-III, N-A-A-K-Y-N-P-(C-A-S-Y-L), reference compound] (H-NAAKYNPCASYL; thioester 8-C): “inhibit”. As to “Y-S-T-(C-D-F-I-M) (YSTCDFIM; bridge 4-C) [S. aureus AIP-I, reference compound]”, the “EC50 in AgrC-I” value was “Inactive^c” and the “IC50 in AgrC-I” value was “Inactive^c”. For `CC(=O)N[C@H]1CSC(=O)[C@H](Cc2ccccc2)NC(=O)[C@H](Cc2ccc(O)cc2)NC(=O)[C@H](CO)NC(=O)[C@H](C)NC1=O` [tAIP-I, Ac-(C-A-S-Y-F)] (Ac-CASYF; thioester 1-C), the “Mode/strength of activity toward AgrC-I” value is reported as “weak inhibitory activity”. As for “D-S-V-(DC-A-S-Y-F) (DSV[dC]ASYF; bridge 4-C; also: thiolactone between Cys4 side chain and C-terminus) [AIP-I D-C4]”, the “EC50 in AgrC-I” value is on record as “Inactive^c” and the “IC50 in AgrC-I” value is “Inactive^c”. For “I-N-(C-D-F-L-L) [S. aureus AIP-III, reference compound]”, the “EC50 in AgrC-I” value is “Inactive^c” and the “IC50 in AgrC-I” value is “Inactive^c”.

Turning to “D-S-V-(C-A-S-A-F) (DSVCASAF; bridge 4-C; also: thiolactone between Cys4 side chain and C-terminus) [AIP-I Y7A]”, the “EC50 in AgrC-I” value is given as “Inactive^c” and the “IC50 in AgrC-I” value is “Inactive^c”. In addition, the “Activity against Group-I, in words” value (single concentration 10 μM) is “inactive”. “D-S-V-(C-DA-S-Y-F) (DSVC[dA]SYF; bridge 4-C; also: thiolactone between Cys4 side chain and C-terminus) [AIP-I D-A5]”: the “EC50 in AgrC-I” value is “Inactive^c” and the “IC50 in AgrC-I” value is given as “Inactive^c”.

For the molecule “D-S-V-(C-A-S-DY-F) (DSVCAS[dY]F; bridge 4-C; also: thiolactone between Cys4 side chain and C-terminus) [AIP-I D-Y7]”, the “EC50 in AgrC-I” value is “Inactive^c”; the “IC50 in AgrC-I” value is “Inactive^c”; the “Mode/strength of activity toward AgrC-I” value was “complete loss of activity”.
